In the RNAGym collection of RNA variant scans (doi:10.7554/elife.90254) one finds self-cleavage data, which are given here for 167 variants.

To fix the notation:
B1: OR4K15 (parent)
chain: GUUAACGGUCAUAGGCCAUGGAAACUAGGAGCACCAUUUCGCUGCCAGUGAAGAAAUGAACAAAGAAAAUCUGGGCCAGGCAGGCAUCAAAAGAAAUAGUCUUGCGCUCAACCAGAAAGUCUGUAAUCAUUUUAAGGGUA

The data set covers variants of B1. Put plainly: self-cleavage, relative activity (ratio to wild type); higher = more cleavage; in vitro, sequencing; the parent is a self-cleaving ribozyme.
Regarding A56G A98U, the self-cleavage is 2.25.

As to A56C A125C, the self-cleavage stood at 0.7.

As for A52U U122C, the self-cleavage was 0.74.

Consider G53C U57G, for which the self-cleavage came to 0.65.

A52U A89G: the self-cleavage was found to be 1.56.

For the variant A55U A111C, the self-cleavage was 0.06.

For the variant A54G C77U, the self-cleavage came out at 1.46.

With A56G A116U, the self-cleavage stood at 0.56.

In the case of A55U A56U, the self-cleavage was found to be 0.55.

In the case of A55U A56G, the self-cleavage was determined as 1.38.

On to A55G A60G, for which the self-cleavage is 1.

Regarding A55G A60U, the self-cleavage was determined as 1.62.

Turning to A54G A96G, the self-cleavage worked out at 1.5.

Consider A54G U127A, for which the self-cleavage was 2.16.

As to A54U A116U, the self-cleavage came to 0.42.

A55G A92G: the self-cleavage turned out to be 0.67.

Turning to A55G G106A, the self-cleavage was found to be 0.01.

For A54G U70C, the self-cleavage came out at 0.61.

Take A55G U127C: the self-cleavage amounted to 0.82.

Regarding A56G A135G, the self-cleavage turned out to be 1.61.

Consider A56G A135U, for which the self-cleavage came out at 0.62.

As for A55G A91U, the self-cleavage amounted to 2.07.

Consider G53U A59G, for which the self-cleavage was 1.26.

On to A55G U108C, for which the self-cleavage was 0.01.

As to A54G G74U, the self-cleavage is 0.11.

Consider A52G G83A, for which the self-cleavage was found to be 1.07.

A55G U139A: the self-cleavage was 1.49.

As to A55G U139C, the self-cleavage was 1.72.

On to A52U A125G, for which the self-cleavage turned out to be 0.79.

Consider A55U U127C, for which the self-cleavage was found to be 0.93.

In the case of A55U U127A, the self-cleavage turned out to be 2.63.

For the variant A55U G58U, the self-cleavage worked out at 1.98.

Turning to A55G A56G, the self-cleavage is 1.31.

With A52U U120C, the self-cleavage was determined as 1.21.

With A56G A63G, the self-cleavage amounted to 0.85.

As to A52U A54U, the self-cleavage stood at 1.62.

With A54G U131C, the self-cleavage came to 1.3.

Take A55G U72G: the self-cleavage was found to be 0.25.

For A55G A114C, the self-cleavage is 0.05.

In the case of A55G A114U, the self-cleavage worked out at 0.02.

For the variant A54G A140U, the self-cleavage worked out at 1.25.

As for G53U C112U, the self-cleavage was 0.01.

As to A52U A90U, the self-cleavage was determined as 2.35.

Take A52U A90G: the self-cleavage was found to be 0.38.

On to A54U C109U, for which the self-cleavage was 0.39.

With A56G A68U, the self-cleavage was 1.86.

As to A56G A68G, the self-cleavage was determined as 1.51.

For the variant A56G G75C, the self-cleavage was found to be 0.19.

With A56C A117G, the self-cleavage came to 1.17.

On to A54G U103A, for which the self-cleavage stood at 0.48.

Regarding A54G U103C, the self-cleavage is 0.91.

Consider A54U A90G, for which the self-cleavage turned out to be 0.85.

In the case of A55U U130C, the self-cleavage is 1.13.

Consider A56G A62C, for which the self-cleavage is 1.26.

In the case of A56G A62G, the self-cleavage stood at 1.92.

Consider A52U A94U, for which the self-cleavage worked out at 1.94.

In the case of A52U U100C, the self-cleavage came out at 2.57.

Consider A52U U72C, for which the self-cleavage stood at 0.17.

A52U U72G: the self-cleavage amounted to 0.39.

Take A55U A91G: the self-cleavage was 1.73.

A55G A126C: the self-cleavage was found to be 0.18.

As to A56G A60G, the self-cleavage came to 0.63.

Turning to A54G U120G, the self-cleavage was 2.09.

Turning to A56G C113U, the self-cleavage amounted to 0.08.

Consider G53A A89U, for which the self-cleavage amounted to 2.31.

As for G53A A54U, the self-cleavage was found to be 1.67.

Regarding A55G G123U, the self-cleavage is 2.01.

Consider A55G G123A, for which the self-cleavage came to 1.61.

As to A56G G83A, the self-cleavage was found to be 1.67.

In the case of A54C U120C, the self-cleavage was 0.93.

Consider A54G A114U, for which the self-cleavage was 0.07.

With A54G A114C, the self-cleavage was 0.09.

On to A54G A114G, for which the self-cleavage came to 0.4.

As for A54U U122A, the self-cleavage is 1.45.

With A54U U122C, the self-cleavage amounted to 1.27.

Consider A54G A134U, for which the self-cleavage is 1.32.

For the variant A55G A118G, the self-cleavage worked out at 1.23.

Take A52G U127C: the self-cleavage was 0.95.

As to A54G A68G, the self-cleavage turned out to be 0.91.

In the case of A55G U122G, the self-cleavage was found to be 2.18.

On to A55G U122C, for which the self-cleavage turned out to be 1.2.

In the case of A55G U122A, the self-cleavage turned out to be 1.39.

For A55G A96G, the self-cleavage worked out at 0.83.

In the case of A56G A96G, the self-cleavage was found to be 1.68.

On to A55G A62G, for which the self-cleavage came to 0.75.

In the case of A54G A86G, the self-cleavage was found to be 1.28.

For A55G C107A, the self-cleavage came to 0.02.

Consider A55G C107U, for which the self-cleavage worked out at 0.05.

Regarding A55U A82U, the self-cleavage was 0.28.

With A54G A66U, the self-cleavage amounted to 1.14.

In the case of A54G A64G, the self-cleavage was determined as 1.77.

With A54G C71U, the self-cleavage was determined as 0.58.

Turning to A55U A59G, the self-cleavage was 0.75.

Take A52U A66U: the self-cleavage came to 1.48.

A52U A66G: the self-cleavage worked out at 1.8.

Regarding A55G A116G, the self-cleavage amounted to 0.63.

For A54G U108A, the self-cleavage stood at 0.02.

Consider A55U A118G, for which the self-cleavage was determined as 1.43.

Take A56G C101A: the self-cleavage was found to be 0.12.

As for A54U A64U, the self-cleavage is 1.98.

A54G A110U: the self-cleavage amounted to 1.71.

As to A54U A91G, the self-cleavage came out at 0.86.

As for A54U U130C, the self-cleavage came to 1.62.

In the case of A54G A60G, the self-cleavage is 1.02.

As to A54G A60U, the self-cleavage came out at 1.59.

On to A54U U100C, for which the self-cleavage worked out at 1.43.

On to A55G C101U, for which the self-cleavage is 0.38.

With A52G C121U, the self-cleavage amounted to 1.18.

On to A52G C121G, for which the self-cleavage was found to be 2.33.

On to A52U A117G, for which the self-cleavage came to 1.11.

In the case of A56G C88U, the self-cleavage turned out to be 1.72.

In the case of A52U U70C, the self-cleavage worked out at 1.72.

As to A55U C109U, the self-cleavage worked out at 0.31.

As to A54G G137U, the self-cleavage turned out to be 1.44.

For the variant A52U U131C, the self-cleavage was 0.4.

Turning to A54U A86G, the self-cleavage stood at 0.36.

For A54G U132C, the self-cleavage came out at 1.28.

For the variant A56G A111U, the self-cleavage came out at 0.

On to A55G G58A, for which the self-cleavage was determined as 1.63.

With A52U U130C, the self-cleavage is 1.8.

For A54G U122G, the self-cleavage stood at 2.7.

With A56G A66U, the self-cleavage was determined as 0.92.

Take A55G A66U: the self-cleavage stood at 0.64.

With A54C U87C, the self-cleavage is 1.45.

As for A56C A129G, the self-cleavage turned out to be 1.35.

For A52U U102A, the self-cleavage amounted to 0.36.

For the variant A54C U122C, the self-cleavage was 0.42.

Turning to A54G A67G, the self-cleavage amounted to 1.57.

For the variant A55U A96G, the self-cleavage was 1.61.

Consider A54G C105U, for which the self-cleavage was determined as 0.36.

Consider A56C A66G, for which the self-cleavage was determined as 0.72.

For A54G G123U, the self-cleavage stood at 1.75.

Turning to A55C U102C, the self-cleavage turned out to be 1.41.

A54G G115A: the self-cleavage worked out at 0.25.

For A54U U132C, the self-cleavage was found to be 2.02.

Consider A55G C113U, for which the self-cleavage was found to be 0.03.

In the case of A54G G106A, the self-cleavage is 0.02.

Turning to A55G A78U, the self-cleavage is 0.18.

With A55G A78G, the self-cleavage worked out at 0.23.

As to A56G A110U, the self-cleavage turned out to be 1.05.

Consider A55G A86U, for which the self-cleavage worked out at 1.26.

Turning to A55G A86C, the self-cleavage was 1.66.

With G53A U102A, the self-cleavage was 0.68.

Take A56G A134G: the self-cleavage amounted to 1.2.

Take A54G U100C: the self-cleavage was found to be 2.16.

Turning to A54U A96G, the self-cleavage came out at 1.68.

As to A52G U124A, the self-cleavage stood at 1.03.

As to A52G U124C, the self-cleavage amounted to 1.18.

In the case of A54U A94G, the self-cleavage was 1.64.

On to A54G A55U, for which the self-cleavage was 1.55.

On to A52U U87A, for which the self-cleavage was found to be 1.78.

For A54G U124A, the self-cleavage is 0.9.

For the variant A55U A94U, the self-cleavage was found to be 0.43.

With A55U A94G, the self-cleavage was 1.59.

For A54U U120C, the self-cleavage was 0.32.

Consider A55G G74A, for which the self-cleavage amounted to 0.31.

In the case of A52G U57C, the self-cleavage came to 1.1.

Regarding A52U U57C, the self-cleavage stood at 1.45.

A54U A129G: the self-cleavage came to 0.88.

In the case of A54G A82C, the self-cleavage was 0.13.

For the variant A56C A62G, the self-cleavage came to 0.6.

For A55U A117U, the self-cleavage worked out at 0.72.

For A55U A117G, the self-cleavage came to 1.77.

For A55G A95G, the self-cleavage worked out at 1.92.

As for A54G G93A, the self-cleavage is 1.21.

For the variant A56G A91G, the self-cleavage was determined as 0.51.

Regarding A56G A91U, the self-cleavage is 1.21.
